Measurements reported in the nanobody polyreactivity screen of Harvey et al. (2022).

Experiment: yeast display, Sf9 membrane polyspecificity reagent, FACS + sequencing; frameworks hold sequencing errors
How it was run: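 Sorting gates, low and high (top ~1%), were placed on anti-HA fluorescence to track expression and on streptavidin fluorescence to track reagent binding. A clone's polyreactivity label is taken from the gate it came out of. The reagent was 10% biotinylated, detergent-solubilized Sf9 membrane, applied for 1 hour at 4 °C to galactose-induced yeast display cells.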

Sequence | polyreactivity (PSR sort gate)
QVQLVESGGGLVQAGGSLRLSCAASGRIFSAYTMGWYRQAPGNERELVAAIRWSGDSTYYADSVKGRFTISRDNAKNTVYLQKNSLKPEDTAVYYCAARDRWFPRYSSRYYSWGQGTQVSVSS | high polyreactivity
QVQLVESGGGLVQAGGSLRLSCAASGRTSLYYAMGWYRQAPGKEREFVATITSGGSTNYADSVKGRFTISRDNAKNTVYLQMNSLKPEDTALYYCNARWRRGKTRYGYWGQGTQVNVSS | high polyreactivity
QVQLVESGGGLVQAGGSLRVSCAASGFIFHYYAMGWYRQAPGKERELVAAITYSGGSTYYADSVKGRFTISRDNAKNTVYLQMNSMKPVDTAVYYCNADSVLDLYWNMDYWGQVTQVTVSS | low polyreactivity
QVQLVESGGGLVQAGGSLRLSCAASGSTFPYYAMGWYRQEPGKERELVASIRKRGGGTYYADSVKGRFTISRDNAKNTVYLQMNSLKPEDTAVYYCAVRVYQFRYTGYDYWGQGTQVTVSS | high polyreactivity
QVHLVESGGGLVQAGGSLRLSCAASGSTLHYYTMGWYRQEPGKERELVAAITSGGSTHYADSVKGRFTISRDNAKNTVYLQMNSLKPEDTAVYYCAVKTGKWIPRDYWGQGTQVTVSS | low polyreactivity
QVQLVESGGGLVQAGGSLRLSCAASGLTFEWYPMGWSRQAPGKERELVAAITTGGTTNYADSVKGRFTISRDNAKNTVYLQMISLKPEDTAVYYCARLYRSGYEYWGQGTHVTVSS | low polyreactivity
QVQLVESGGGLVQAGGSLRLSCAASGSTFKSYVMGWYRQAPGKERELVAAISSGDSTYYADSVKGRFTISRDNAKNTVYLQMNSLKPEDTAVYYCNADVSLDDYDYWGQGTQVTVSS | low polyreactivity
QVQLVESGGGLVQAGGSLRLSCAPCGSIFSSYAMGWYRQAPGQDWELVAAISSGGCITYYADSVKGRFTISRDNAKNTVYLQMHSLKPEDTAVYYCNARVARSNYGWYYDWGQGTQVTVSS | high polyreactivity
QVQLVESGGGLVQAGGSLSLSCAASVYIFLVYAMGWYRQAPGKERELVAAISSGGSTYYADSVKGRFTISRDNAKNTVYLQMNSLKPEDTAVYYCAKAGLALYAFRDDYWGQGTQVTVSS | low polyreactivity
QVQLVESGGGLVQAGGSLRLSCAASGRIFLVYAMGWYRQAPGKERELVAAISWRGGRTYYADSVKGRFTISRDNAKNTVYLQMNILKPEDTAVYYCAAASKYSQFEYDYWGHGTQVTVSS | high polyreactivity
QVQLVESGGGLDQAGGSIRLSCAASGGTFKANAMGWYRQAPGKEREVVAAIRQTGGSTYYADSVKGRFTISRDNEKNTVYLQMNSLKPEDTAVYYCAAQSHRYWIYDYWGQCTQVTVSS | high polyreactivity
QVQLVESGGGIVQAGGSLRLSCAASGRTFFLYTLGWYRQAPGKEREFVAAINYSGGRTYYADSVKGRFTISRDKAKNTVYLQMNSLKPEDTAVYYCAAYRGSYSYDYWGQGTQVTVSS | high polyreactivity
QVQLVESGGGLVQAGGSLRLSCAASGYTFQENAMGWYRQAPGKERELVAAISYGGGSTYYADSVKGRFTISRDNAKNTVYLQMNRLKPEDTAVYYCADDGGSAYAWYFAELYGYWGQGTQVTVSS | low polyreactivity
QVQLVESGGGLVQAGGSLRLSCAASGSIFRYYAMGWYRQAPGKERELVAAITASGGRTHYADSVKGRFTISRDNAKNTVYLQMNSLKLEDTAVYYCSADLYYAWYWKQHYDYWGQGTQVTVSS | high polyreactivity
QDQLVESGGGLVQAGGRLRLSCAASGSTVGVYAMGWYRQAPGKERELVAAISYTGGSSYYADSVKGRFTISRDNAKNTVYLQMNSLKPEDTAVYYCAVEVGYTDSPYSYDYWGQGTQVTVSS | low polyreactivity
QVQLVESGGGLVQAGGRLRLSCAASGFIFSYYAMGWYRQAPGKERELVAAINYSGGRTYYADSVKGRFTISRDNAKNTVYLQMNSLKPEDTAVYYCNAVTFGRRAFDYWGQGTQVTVSS | high polyreactivity
QVQLVESGGGLVQAGGSLRLSCAACGNTFTYYAMGLYRQAPGKERELVASISSGVSTNYADSVKGRFTISRDNAKNTLYLHINSLKPEDTAVYYCARGWSFSTRRFQHTRYYYWGQGTQVTVSS | high polyreactivity
QVQLVESGGGLVQAGGSLRLSCAASGRIFRYYAMGWYRQAPGQERELVAAISWRGGITNYADSVKGRFTISRDNAKNTVYLQMNSLKPEDTAVYYCNRVQGPDSQAKTSMYYWGQGTQVTVSS | high polyreactivity
QVQLVESGGGLVQAGGSLRLSCAASGFTFGLYVMGWYRQAPGKERELVAVISRSGGGTYYADSVKGRFTISRDNAKNTVYLQMNSLKPEDSAVYYCAKPFSYITGWYNYWGQGTQVTVSS | high polyreactivity
QVQLVESGGGLVQAGGSLRLICAASGFIFRRNARGWSRPAPGTERELVAAISSSGGSTYYADSVKGRFTISRDNAKNTVYLQMNSLKPEDTAVYYCATVLRVTRVDYWGQGTQVTVSS | high polyreactivity
QVQLVESGGGLVQAGGSHRLSCAASGRIFAHNAMGWYSQAPGKERELVAAITWSGGSTYYADSVKGRFTISRDNAKNTVYLQMNSLKPEDTAVYYCNTDSHGHLYNYWGQGTQVTVSS | low polyreactivity
QVQLVESGGGLVQAGGSLRLSCAASGIIIARNTMGWYRQAPGKERELVAAISTRGTTTYYADSVKGRFTISRDNAENTVYLQMNSLKPEDTAVYYCAAVRVHTDRYNYWGQGTQVTVSS | high polyreactivity

Sequence | polyreactivity (PSR sort gate)
QVQLVESGGGLVQAGGSLRISSAASGSIFGRYAMGWYRQAPGKERELVAAISSGTSTYYADSVKGRFTISRDNAKNTVYLQRNSLIPEDTAVYYCAARRYSVRSGGTGRMYYWGQGTQVTVSS | high polyreactivity
QVQLVESGGGLVQAGGSLRLSCAASGRTFSRYAMGWYRQAPGKERELVAAIRGNSGNTYYADSVKGRFTISRDNAKNTVYLQMNSLKPEDTAVYYCAKPFNIWGQGTQVTVSS | high polyreactivity
QDQLVESGGGLVQAGGSLRLSCAASGFTFYPYAMGWYRQAPGKERELVAAITYIGSTYYADSVKGRFTISRDNAKNTVYLQMNSLKPEDTAVYYCAAVKVFLGLGYDYWGQGTQVTVSS | low polyreactivity
QVQLVESGGGLVQAGGSLRLSCAASGSTFGWYTMGWYRQAPGKERELVAAISSGGRTYYADSVKGRFTISRDNEKNTVYLQMNILKPEDTAVYYCAAGIYSSRHSPYGYWGQGTQVTVSS | high polyreactivity
QVQLVESGGGLVQAGGSLRLSCAACGSIFEFNTMGWYRQAPGKERELVAAISSSGGRTYYADSVKGRFTISRDNAKNSVYLQMNSLKPEDTGVYYCNARRLVHNPDYDYWGQGTQVTVSS | high polyreactivity
QVQLVESGGGLVQAGGSLRLSCAASGSTFGPNAMGWYRQAPGKERELVATITYSGGSTYYADSVKGRFTISRDNAKNTVYLQMNSLKPEDTAVYYCAAVYRYSRFTYGYWGQGTQVTVSS | high polyreactivity
QVQLVESGGGLVQAGGSLRLSCAASGRIFFYNAMGWYRQAPGKETELVAAISSSGGSTSYADSVKGRFTISRDIAKNTVYLHMNSLKPEDTAVYYCAVDDPYYEKYDYWGQGTQVTVSS | low polyreactivity
QVQLVESGGGLVQAGGSLRISCAASGSIFTRYAMGWYRQAPGKERELVAAIRTSGGSTYYADSVKARFTISRDNAKNTVYFQMNSLKPEDTAVYYCARRYYKSNFYYWGQGTLVTVSS | high polyreactivity
QVQLVESGGGLVQAGGSLRLSCAASGSTFAHNAMGWYRQAPGKERELVATISGSGGTTRYADSVKGRFTISRDNAKNTVYLQMNSLKPEDTAGYYCAAQSSTPKLYDYWGQGTQVTVSS | low polyreactivity
QVQLVESGGGLVQAGGSLRLSCAASGRIFGVNAMGWYRQAPGKERELVAAINFSGGGTYYADSVKGRFTISRDNAKNTVYLQMTSLKPEDTAVYYCAADGPDYKWYYELDYWGQGTQVTVSS | low polyreactivity
QDQLVESGGGLVQARGSLRLRCAASGFIFIFNAMGWYRPAPGKERELVAAIDTSDDSTYYADSVKGRFTISRDNGKNTVYLQLNSLKPEDTAVYYCAAEELSNYEYWGQGTQVTVSS | low polyreactivity
QVQLVESGGGLVQAGGSLRLSSAASGSIFWHYAMGRYRQAHGKERQLVAGISTRGGITYFADSVKGRFTISRDNAKNTVYLQMNSLKPEDTAVYYCNGVLFFQWFWTYDDYWGQGTQVTVSS | low polyreactivity
LVQLQESGGGLVQAGGSLRLSCAASGTISQGGYMGWYRQAPGKERELVASINVGGSTNYADSVKGRFTISRDNAKNTVYLQMNSLKPEDNAVYYCAVWGRNRLQLSYWGQGTQVTVSS | low polyreactivity
QVQLLESGGGLVQAGGSLRLSCAASGLIFERYAMGWYRQAPGKERELVAAITRRGGSTYDADSVKGRFTISRDNAKNTVYFQMNSLKPEDTAVNYCAAGRPQDTEFDYWGLGTQVTVSS | high polyreactivity
QVQLVESGGGLVQAGGSLRLSCAASGRTFGHNAMGWYRQAPGKEREFVAAITYSGVRTFYADSVKGRFTISRDNAKNTVYLQMNSLKPEDTAVYYCATDWRRDYDYWGQGTQVTVSS | low polyreactivity
QVQLVESGGGLVQAGGSLRLSCAASGFTFFTYAMGWYRQAPGKDRQLVAAITTGGSTNYADSVKGRFTISRDNAKINVYLEMNSLKPEDTAVYYCAAQRVSVLLFVRHDYWGQGTQVTVSS | low polyreactivity
QDQLVESGGGLVQAGGSLRLSCAASGRTIKTYAMGWYRQAPGKVRELVAAIRRRGGSTYYADSVKGRFTISRDNAKNTVYLQMHSLKPEDTAVYYCAAGYVTYRDAHVSMDYCGQGTQVTVSS | high polyreactivity
QDQHVESGGGLVQEGGSLRLSCASSSSTFEYYAMGWYRQPPGKERELVATISIDGRTNYADSVKGRFTISRDNAKNTVYLQMNSLKPEDTAVYYCAARPYWRHRYDYWVQGTQVTVSS | low polyreactivity
QVQLVESGGGLVQAGGSLRLSCAASGRNFKYNAMGWYRQAPGKERELVAVITSGGSTYYADSVKGRFTISRDNAKNTVYLQMNSLKPEDTAVYYCAKKYYKVHKFDYWGQGTQVTVSS | low polyreactivity
QVQLVESGGGLVQAGGSLRLSCAASGSTFQPYAMGWYRQAAGNEREFVATISGSAGSTNYADSVKGRFTTSRDNAKSTVYLQMNSLKPEDTALYYCNALYRYLYRSGDYWGQGNQVTVSS | low polyreactivity
QVQHVESGGGLVQAGGSLRLSCAASGSTFGWYAMGWYRQAPGKERELVAAITRRGTRTYYADSVKGRFTISRDNAKNTVYLQMNSLKPEDTAVYYCNARGFPGKFGYWGQGTQVTVSS | high polyreactivity
